{
  "source": "the nanobody polyreactivity screen of Harvey et al. (2022)",
  "data": [
    {"test": "yeast display, Sf9 membrane polyspecificity reagent, FACS + sequencing; frameworks hold sequencing errors", "how_it_was_run": "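Synthetic nanobody libraries on Saccharomyces cerevisiae BJ5465 were galactose-induced for 36–48 hours, stained 1 hour at 4 °C with 10% biotinylated, detergent-solubilized Sf9 membrane reagent and enriched on streptavidin microbeads. FACS then separated cells into low and high (top ~1%) gates by anti-HA (expression) and streptavidin (reagent binding) fluorescence. Genes were colony-PCR amplified, MiSeq 2 × 250 sequenced and CDR-length filtered. A clone's polyreactivity label is that of its gate of origin.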", "values": [
      {"sequence": "QVQLVESGGRLVQAGGSLRLSCAATGSTFYKNPMGRYRHAPRKEREVVAAISTSGGSTYYADSLKGRFTISRDNAKNTVYLHMNRLKPEDTAVNYCATRRRIPSSCYYDNDYWGQGTQVTVSS", "polyreactivity (PSR sort gate)": "high polyreactivity"},
      {"sequence": "QVQLVESGGGLVQAGGSLRLSCAASGRIFGFYAMGWYRQAPGKERELVARISSRGGSTYYADSVKGRFTISRDNAKNTVYLQMNSLKPEDTAVYYCAAYVWYHQYHYVPMDYWGQGTQVTVSS", "polyreactivity (PSR sort gate)": "high polyreactivity"},
      {"sequence": "QVQHVESGGGLVQAGGSLRLSCAASGSIFRWYAMGWYRQAPGKERELVAGITSGGSTNYADSVKGRFTISRDNAKNTVYLQMNSLKPEDTAVYYCNARRWVGSRYDYWGQGTQVTVSS", "polyreactivity (PSR sort gate)": "high polyreactivity"},
      {"sequence": "QVQLVESGGGLVQAGGSLRLSCAASGGIFVVYGMGWYRQAPGKERELVAAISWRGGSTYYADSVKGRFTISRDNAKNTVYLQMNSLKPEDTAVSYCAADQYYGGYDYWGQGTQVTVSS", "polyreactivity (PSR sort gate)": "low polyreactivity"},
      {"sequence": "QVHLVESGGGLGQAGGSLRLSCAASGIIFRLYAKGWYIPAPGKERELVAAISRRGDSTYYADSVKGRFTISRDNAKNTVYLQMIILKPEDTAVYYCAAERWGDYGYWGQGTQVTVSS", "polyreactivity (PSR sort gate)": "high polyreactivity"},
      {"sequence": "QVQLVESGGGLVQAGGSRRLSCAASGFTFPHYLGRYRQAPGKERELVAAIIVSGGSTSYADSVKGRFTMSRDNAKNTVYLQMNSLKPEDTAVYYCAKDLRFRLFSYPSDYWGQGTQVTVSS", "polyreactivity (PSR sort gate)": "low polyreactivity"},
      {"sequence": "QVQLVESGGGLVQAGGSLRLSCAASGRTFAYYAMGWYRQAPGKERELVAAITRGGSTYYADSVKGRFTISRDNAKNTVYLQMNSLKPEDTAVYYCATLYTRYDSYLVKGKYGYWGQGTQVIVSS", "polyreactivity (PSR sort gate)": "high polyreactivity"},
      {"sequence": "QVQLVESGGGLVQAGGSLRLSCADSVSIVGYYTMGWYRQAPWKARELVSGITSTGNTNYADSVKGRFTISRDNAKNTVYLHMNSLKPEHTAVYYCAADSESTWDFGWELEVGYDYWGQGTQVNVSS", "polyreactivity (PSR sort gate)": "low polyreactivity"},
      {"sequence": "QVQLVESGGGLVQAGGSLRLSCAASGSIFNLYAMGWYRQAPGKEREMVAAISYSTGSTYYADSVKGRFTISRDNAKNTVYLQMTSLKPEDTAVYYCNAQEGILGWVLYDYWGQGTQVTVSS", "polyreactivity (PSR sort gate)": "high polyreactivity"},
      {"sequence": "QVQLVESGGGLVQAGGSLRLICAASGSTFGRYAMGWYRQAPGKERELVARISWGGGSTYYADSVKGRFTISRDNAKNTVYLQMYSLKPEDTAVYYCATRVYRSAVSYDYWGQGTQVTVSS", "polyreactivity (PSR sort gate)": "high polyreactivity"},
      {"sequence": "QGQLVESGGGLVQAGGSLRLSCAASGSIFYRNAMGWYRQAPGKERELVAAISYSGGSTYYADSVKGRFTISRDNAKNTVYLQMNSLKPEDTAVYYCAKDYPTPISDYSRYYGYGYWGQGTQVTVSS", "polyreactivity (PSR sort gate)": "low polyreactivity"},
      {"sequence": "QVQLVESGGGLVQAGGSLRLSCAASGGIFYVNAMGWYRQAPGKERELVAAITSDGVSTYYADSVKGRFTISRDNAKNTVYLQMNSLKPEDTAVYYCAADNGGAGYYYGYVWYDYWGQGTQVTVSS", "polyreactivity (PSR sort gate)": "low polyreactivity"},
      {"sequence": "QVQLVESAGGLVQAGGSLRLSCAASGSTLYKYAMGWYRQAPGKETEMVATLTRTDSTNYADSVKGRFTISRDNAKNTVYIQMNSLKPEDTAVYYCAARRVYYNGYYVNVGSFYYWGQGTQVTVSS", "polyreactivity (PSR sort gate)": "low polyreactivity"},
      {"sequence": "QVQLVESGGGLVQAGGSLRLSCAASGFIFSGYVMGWYRQAPGKERELVAAITGSDGSTYYADSVKGRFTISRDNAKNTVYLQMNSLKPEDTAVYYCATTFQYYWFSLYDYWGQGTQVTVSS", "polyreactivity (PSR sort gate)": "low polyreactivity"},
      {"sequence": "QVQLVESGGGLVQAGGSLRLSCAASAFIYSFNAMGWYSQAPGKERELVAAISRSGGSTRYADSVKGRFTISRDTAKNTVYLQMNSLKPEYTAVYYCATDASPVRKRYDYWGQGTQVTVSS", "polyreactivity (PSR sort gate)": "high polyreactivity"},
      {"sequence": "QVQLVESGGGLVQAGGSLRLSCAASGRTSRNNVMGWYRQAPGKERELVAAITKRTDRTYYADSVKGRFTISRDNAKNTVYLQMNSLKPEDTAVYYCAADLSLSTGGRAFPTYGYWGQGTQVTVSS", "polyreactivity (PSR sort gate)": "high polyreactivity"},
      {"sequence": "QVQLVESGAGLVQAAGRLRLSCAASGNTFKVNVMGWYRPAPGKERQLVASITINDRSTYYADSVKGRFTISRDNAKNTVYLQMNSLKREDTEVYYCGGDLADFYPRFNYWGQGTQVSVSS", "polyreactivity (PSR sort gate)": "low polyreactivity"},
      {"sequence": "QVQLVESGGGLVQAGGILRLSCAASGRIFNGYAMGWYRQAPGKERELVAAITSGGRTYADSVKGRFTISRDNAKNTVYLQMYSLKPEDTAVYYCAADAGRILFSGYDYWGQGTQVTVSS", "polyreactivity (PSR sort gate)": "low polyreactivity"},
      {"sequence": "QVQLVESGGGLVQAGGSLRLSCAASGMTFGLYAMGWYRQAPGKERELVAAISKRGGSTNYADSVKGRFTISRDNAKNTVYLQMNSLKPEDTAGYYCAARYPQRGTGKATYVRSRSGYWGLGTQVTVSS", "polyreactivity (PSR sort gate)": "high polyreactivity"},
      {"sequence": "QVQRVESGGGLVQAGGSLRLSSPASGRMGWYRQAPGKERELVAAITSGDRTNYADSVKGRFTISRDNAKNTVYLQMNSLKPEDTAVYYCATERSWYHGFIDPRGYWGQGTQVTVSS", "polyreactivity (PSR sort gate)": "low polyreactivity"},
      {"sequence": "QVQLVESGGGLVQAGGSLRLSCASSGRTFYLNAMGWYRQAPGKERELVAAISKRGGSTYYADSVKGRFTISRDNAKNTVYLQMNSLKPEDTAVYYCAKGFSFYSPRYDYWGQGTQVTVSS", "polyreactivity (PSR sort gate)": "high polyreactivity"},
      {"sequence": "QVHLVESGGGLVQAGGSLRLSCAASGSTFWYNAMRWYRQAPGKERELVASIDDIGGSTYYADSVKGRFTISRDNAKYTVYLQMNSLKPEDTAVYYCAKDYGSSYVTDSDYWGQATQVTVSS", "polyreactivity (PSR sort gate)": "low polyreactivity"},
      {"sequence": "QEQLQESGGGLVQAGGSLRLSCAASGNITLDTAMGWSRQAPRKEREFVASINDGGITNYADSVKGRFTICRDNAKNSVYLQMNSLKPEDTAVFYCAARWIWRGYDYWGQGTQVTVSS", "polyreactivity (PSR sort gate)": "high polyreactivity"},
      {"sequence": "QVQLVESGGGLVQAGGSLRLSCAASGSTFSRYAMGWYRQAPGKERELVAAISWSGASTYYADSVKGRFTISRDNAKNTVYLQMNRLKPEDTSVYYCAKVARQNWFRYYYDYWGQGTQVTVSS", "polyreactivity (PSR sort gate)": "high polyreactivity"},
      {"sequence": "QVQLVESGGGLVQAGGSLRLSCAASGSTSPAYAMGWYRQAPGKERELVAVITGSGASTYYADSVKGRFTISRDNAKNTVYLQMNSLKPEDTAVYYCAADVGFGVVFYDYWGQGTQVTVSS", "polyreactivity (PSR sort gate)": "low polyreactivity"},
      {"sequence": "QVQLVESGGCLVQAGGSLRLSSAASGFIFYYNAMGWYRQEPGKESELVATIRGSGGSTYYADSVKGRFTISRDNAKNTVYLQMNSLKPEDTAVYYCAASVQYRRLKKFYYWGQGTQVTVSS", "polyreactivity (PSR sort gate)": "high polyreactivity"},
      {"sequence": "QVQLVESGGGLVQAGGSLRLSCAASGLTFIFNTMGWYRQAAGKERVLVAAISTSGGSTYYADSVKGRFTISRDNANNTVYLQMNSVKQEDTAFYYCAKEFKYWGYPYEYWGQGTLVTVSS", "polyreactivity (PSR sort gate)": "low polyreactivity"},
      {"sequence": "QVQLVESGGGLVQAGGSLRLSCAASGNIFYVYVMGWYRQAPGKERELVASITSGASTYYADSVKGRFTISRDNAKNTVYLQMNSLKPEDTAVYYCAAEALGGAGDYSTLYIYDYWGQGTQVTVSS", "polyreactivity (PSR sort gate)": "low polyreactivity"},
      {"sequence": "QVQLVESGGGLVQAGGSLRLSCAASGRSFYLYAMGWYRQAPGKERELVASISWNGGSTYYADSVKGRFTISRDNAKNTVYLQMNSLKPEDTAVYYCATDSHRSRLNRPYQLFPAYYYWGQGTQVTVSS", "polyreactivity (PSR sort gate)": "low polyreactivity"},
      {"sequence": "QVQLVESGGGLVQAGGSLRLSCAASGSIFGRYAMGWYRQAPGKEMELVAAISTGDSTYYADSVKGRFTISRDNAKNTVYLQMNSLKPEDTAVYYCNRRGRRGYDYWGQGTQVTVSS", "polyreactivity (PSR sort gate)": "high polyreactivity"},
      {"sequence": "QVQLVESGGGLVQAGGSLRLSCAASGSTFSENAMGWYRQAPGKERELVAAISWGGGSTYYADSVKGRFTISRDYAKNTVYLQMNSLKPEDTAVYYCNADVFDDYGYFESDYWGQGTQVTVSS", "polyreactivity (PSR sort gate)": "low polyreactivity"},
      {"sequence": "QVQLVESGGGIVQAGGRLRLSCAASGSTFPSKAMGWYRQAPGKERELVAAISRGGTTNYADSVKGRFTISRDNAKNTVYLQMNSLKPEDTAVYYCAKVYKLYWYKAYRRDYWGQGTQVTVSS", "polyreactivity (PSR sort gate)": "high polyreactivity"},
      {"sequence": "QVQLVESGGGLVQAGGSLRLSCAASGRTFQYYAMGWYRQAPGKERELVAAISWSGASTYYADSVKGRFTISRDNAKNTVYLQMNSLKPEDTAVYYCAVKAGGSRYGYWGQGTHVTVSS", "polyreactivity (PSR sort gate)": "high polyreactivity"},
      {"sequence": "QVQLVESAGGLVQAGGSLRLSCAASGFIFARYAMGWYRQAPGKERELVAAISSSGGITYYADSVKGRFTISRDNAKNTVYFQMNSLKPEDTAVYYCNAESYYFYWPVYSYDYWGQGTQVTVSS", "polyreactivity (PSR sort gate)": "low polyreactivity"},
      {"sequence": "QVQLVESGGGLVQAGGSLRLSCAASGSIFTSYAMGWYRQAPGKERELVAAISSSGSTYYADSVKGRFTISRDNAKNTVYLQMNSLKPEDTAVYYCNADSRTAGLNSEYDYWGQGTQVTVSS", "polyreactivity (PSR sort gate)": "low polyreactivity"},
      {"sequence": "QVQLVESGGGLVQAGGSLRLSCAASGSIFYSNAMGWYRQAPGKERELVAAINWSGVRTYYADSVKGRFTISRDNAKNTVYLQMNSLKPEDTAVYYCAAKTYQQQIVRPMYYWGQCTQVTVSS", "polyreactivity (PSR sort gate)": "high polyreactivity"},
      {"sequence": "QVQLVESGGGLVQAGGSLRLSCAASGFIFYKYAMGWYRQAPGKERELVAAITSSAGSTYYADSVKGRFTISRDNAKNTVYLQMNSLKPEDTAVYYCAADFHVDYVYWGQGTQVTVSS", "polyreactivity (PSR sort gate)": "high polyreactivity"},
      {"sequence": "QVQLVDSGGGLVQAGGSLRLSCAASGRTFQRNAMGWYRQAPGTERELVATITTNGGSTYYADSVKGRFTISRDNAKNTVYLQMNSLKPEDTAVYYCAAPFNPRVRTLRSVRMDYWGQGTQVTVSS", "polyreactivity (PSR sort gate)": "low polyreactivity"},
      {"sequence": "QVQLVESGGGLVQAGGSLRLSCAASGIIFQYYAMGWYRQAPGKERELVAAISWSGGSTYYADSVKGRFTISRDNAKNTVYLQMNRLKPEDTAVYYCAARSRSYWPYEGDYWGQGTQVTVSS", "polyreactivity (PSR sort gate)": "low polyreactivity"},
      {"sequence": "QVQLVESGGGLVQAGGSLRLSCAASGFIFWWYAMGWYRQAPGKERELVAGITGSGGTTYYADSVKGRFTISRDNAKNTVYLQMNSLKPEDTAVYYCAARSRSRPKYDYWGQGTQVTVSS", "polyreactivity (PSR sort gate)": "high polyreactivity"},
      {"sequence": "QVQLVDSGGGLVQAGGSLRLSCAASGFTFVYYVMGWYRQAPGKERQLVAAINAGGGSTYYADSVKGRFTISRDIAKYTVYLQMNSLKPEDTAVYYCNARVRVRLGRNWSSYYYWGQGTQVTVSS", "polyreactivity (PSR sort gate)": "high polyreactivity"},
      {"sequence": "QVQLVESGGGLVQAGGSLRLSCAASGSTFYDNAMGWYRQAPGKERELVAAIDGGDTYYADSVKGRFTISRDNAKNTVYLQMISLKPEDTAVYYCAAESLPEISVGLGYWGQGTQVTVSS", "polyreactivity (PSR sort gate)": "low polyreactivity"},
      {"sequence": "QVQLVESGGGLVQAGGSLRLSCAASGITYRWKAMGWYRQAPGKERELVAAITTRGGGTYYAVSVKGRFTISRDNAKNTVYLQMISLKPEDTAVYYCAAKKSRYPYNYWGQGTQVTVSS", "polyreactivity (PSR sort gate)": "high polyreactivity"}
    ]}
  ]
}
